How the values were obtained:
Test in all cases: steady-state kinetics, HPLC-MS of glycoside product
Type in all cases: biochemical, Solanum lycopersicum
[1] = substrate: O=c1ccn([C@@H]2O[C@H](COP(=O)(O)OP(=O)(O)O[C@H]3OC[C@@H](O)[C@H](O)[C@H]3O)[C@@H](O)[C@H]2O)c(=O)[nH]1; details: HexGlc fixed as acceptor, 50 mM potassium phosphate pH 7.5, 30 °C
Source text: (§1) steady-state kinetics, HPLC-MS of glycoside product on UGT91R1

[2] = substrate: O=c1ccn([C@@H]2O[C@H](COP(=O)(O)OP(=O)(O)O[C@H]3OC[C@H](O)[C@H](O)[C@H]3O)[C@@H](O)[C@H]2O)c(=O)[nH]1; details: HexGlc fixed as acceptor, 50 mM potassium phosphate pH 7.5, 30 °C
Source text: as §1

[3] = substrate: CC/C=C\CCO[C@@H]1O[C@H](CO)[C@@H](O)[C@H](O)[C@H]1O; details: UDP-arabinose fixed as donor, 50 mM potassium phosphate pH 7.5, 30 °C
Source text: as §1

B1: UGT91R1 (Solanum lycopersicum) (protein)
chain: MAENGKKLHIAVFPWLAFGHMIPYLELSKLIAQKGHKISFISTPRNIDRLPKLPPNLTPFLNFVKLPMPHVEKLPENAEATIDLPYEQVKYLKLAQDALQESMSKFIEDSDIDFILFDFTSYWVPSIASKFNIPSGYFSIFIAAFLGFTGPVPGLNNDYEIRMTPEEYTVTPKWVPFETTVAFKLFEVSRIFEASMKGEEENIADIVRYYRSVENCDFLLVRSCSEFEPEWLKVVGDIHRKPVFPVGQLPTTPYEDDSTKIDAWREIKLWLDKQEKGKVIYVAFGSEAKPSQNELTELSLGLELSGLPFFWVLRIKRGESDDELIQLPEGFEERTKGRGIVCTSWAPQLKILSHDSVGGFLTHSGWSSVVEAIQFEKSLVLLTFLADQGINARLLEEKKMAYSIPRNDQDGSFTRDSVAESLNLVLVKEEGFIYREKIKEMKDLFCDKKRQNNYVENLLSFLQDYEKIKA
notes: full length, synthetic cDNA in pET15b, E. coli BL21(DE3), HisTrap purified
- Km [1]: 603 ± 75 µM
- kcat [1]: 1.8 ± 0.1 s⁻¹
- kcat/Km [1]: 3000 ± 400 M⁻¹ s⁻¹
- Km [2]: 38 ± 4 µM
- kcat [2]: 1.9 ± 0.1 s⁻¹
- kcat/Km [2]: 51000 ± 5000 M⁻¹ s⁻¹
- Km [3]: 5.9 ± 0.5 µM
- kcat [3]: 0.33 ± 0.009 s⁻¹
- kcat/Km [3]: 57000 ± 5000 M⁻¹ s⁻¹
